From the DeepSol protein solubility set

test: soluble on expression in E. coli; label from the status in PepcDB or PDB records

Question: For “MSTCATVSRDLDEPLAGTAATARTWLLLEQPGPWGTKALTSSHLDQALGRALEAAAEGTGVRIALIRRPGRHADCGTPAVRQVYAAHTVPGNVWLHGAMTSDPEQLLDLDFTALGMGDPHTFDRLLGGRPHTGDPLALVCTNGKRDRCCALLGRPLAAELAASGVTGAWEVTHLGGHRFAPTLLILPFGYAYGRAEAPHIKEVLQGVREGRVVVEGCRGRSAWERPGQAAELAVRTAAHEYAADALTVVATDGTAPRWEVTVAHADGRLWRVIVAQGASLPPRPESCGSALGSPARMDVVAVRELIPTEIDATSR”, which “soluble on expression in E. coli” value is on record?
Answer: not soluble

Question: With “MEDLLPTLPSLDHRDALPNALASPVLPAGQSDAQLVRTWLDTKYAAGLGIRASTRAQYALEAHRLLWYAHALGRPLASWQVADANGYLAFLADPPAHAVGDGRVRQDSPAWRPLRGPLSEASRRQTATIVGGLFEWLVGVEALRVNPFQAVPRARSARGPGSQRRFLEAEQLAAVFDAVEARPAPTLWAQLHKARDRLLLALLFHTGLRASEVTALTWPDFERQRGRHGDFWTVRIREAKGGSDQLVPCDNVMAELARFRQLVGLSPEPRATDTMAVVPAMAGGRQRLAPLTDTLALQRRLSRPVRTRQGLYTIVRQVFEAAAVRLEASGYAEGAANLRAASTHWLRHSHATHLLRAGVPVTDVQRTLRHRDINTTRRYTHEALEDVARSIGGKLPAVLEHHHHHH” as the sequence, how does the “soluble on expression in E. coli” value read?
Answer: not soluble

Question: For “SASGDFCSPGEGMEILQQVCSKQLPPCNLSKEDLLQNPYFSKLLLNLSQHVDESGLSLTLAKEQAQAWKEVRLHKTTWLRSEILHRVIQELLVDYYVKIQDTNVTSEDKKFHETLEQRLLVTELMRLLGPSQEREIPPLLGLEKADLLELMPLSEDFVWMRARLQQEVEEQLKKKCFTLLCYYDPNSDADSETVKAAKVWKLAEVLVGEQQQCQDAKSQQKEQMLLLEKKSAAYSQVLLRCLTLLQRLLQEHRLKTQSELDRINAQYLEVKCGAMILKLRMEELKILSDTYTVEKVEVHRLIRDRLEGAIHLQEQDMENSRQVLNSYEVLGEEFDRLVKEYTVLKQATENKRWALQEFSKVYR”, which “soluble on expression in E. coli” value is on record?
Answer: not soluble

Question: For “METFYRTHSYLVEHTNAPVRRDLMDEIDWNDRLIGIKGTRGVGKTTFLLQYAKEKFGTDHSCLFINMNNFYFSKYTLVEFAAEFVKRGGKVLLIDQVFKYPEWSHDLRACYEMFPTLKIIFTGSSVMRLKEENPELSGIAKVYYLRGFSFREYLNLQSGNCFRAYTLQEILENHEQIAKTILRNVKPLDYFQDYLHHGFYPFFLEKRNFSENLLKTMNMMIEVDILLIKQIELKYLSKIKKLLYLLAVDGPVAPNVSQLATEIQTSRATVMNYIKYLADARLINMVYPKGEEFPKKPSKLMMHNTNLMYSIYPVKVEEQDVLDTFFMNTLYKDHKLYKGDKGTSFMVDNGLHFRICAEGCKFKNNPNVYYALHKLELGHGNMIPLWLFGFLY”, which “soluble on expression in E. coli” value is on record?
Answer: not soluble

Question: With “MSKTTQSRETTLAGHPVEYEVRRSEDATEPRIDIDIRGVTVVLPAESEESPEALLSENLNWVLETKRTYERHRERAPERRFEPGAAFPYLGDDHEIVVEPRPAHGVGDGEIRLRQSTVDQSSLKRVLENFYRSRAREHLTDRTDALADSMNHTYDRIELRNQRTRWGSCSTNGVLSFNWRLVMAPPDVIDYVVVHELAHLRESGHNDRFWRLVEMEIPEYRELSDWLDTNSVDLIFSKDDLLEHHHHHH” as the sequence, how does the “soluble on expression in E. coli” value read?
Answer: soluble

Question: Which “soluble on expression in E. coli” value does the source give for “MAADYTHFIHRQHAPPEVCLSAFSGHNDALDFPDSEGSPVSQSLIAALQNPALFPHPVEGFQVIETHISWVLLTGPFAYKVKKPVNFGFLDFTSLDAREHFCGEELRLNQRLTEDLYLEVLPITGSAEAPVLGGDGPAIEYVLKMRQFPQSQLLSTLQANSELTTAHIDEMARQIAHFHLNAPKVPAEHEAGTPESVMAPVRQNFEQIRPFLSDKADLQQLEALEAWAETSFERLKPLLAQRKSEGFIRECHGDIHLGNATLIDGKVVIFDCIEFNEPFRFTDVYADTGFLAMDLEDRGLKSLARRFISQYLELTGDYQGLELLNFYKAYRALVRAKVSLFSMPAEATPVQRATTLRQYRNYANLAESYSTIPSRFLAITSGISAVGKSRVAMRLVEALGAVRLRSDVERKRLFGEQQVPNDPHAGIYSSEASSATYARLHEIAETILRAGFPVVIDATYLKRAQRDAAAKVAEATGTPCLIIDCNAPEAVVASWLAQRQADQNDPSDATLEVIANQQATREALTDEELLRSKRIETNESGSLDALVANIRQRLPGLLEHHHHHH” here?
Answer: not soluble

Question: With “MTEFDNLTWLHGKPQGSGLLKANPEDFVVVEDLGFTPDGEGEHILLRILKNGCNTRFVADALAKFLKIHAREVSFAGQKDKHAVTEQWLCARVPGKEMPDFSAFQLEGCKVLEYARHKRKLRLGALKGNAFTLVLREISDRRDVETRLQAIRDGGVPNYFGAQRFGIGGSNLQGALRWAQSNAPVRDRNKRSFWLSAARSALFNQIVHQRLKKPDFNQVVDGDALQLAGRGSWFVATSEELPELQRRVDEKELMITASLPGSGEWGTQRAALAFEQDAIAQETVLQSLLLREKVEASRRAMLLYPQQLSWNWWDDVTVELRFWLPAGSFATSVVRELINTMGDYAHIAELEHHHHHH” as the sequence, how does the “soluble on expression in E. coli” value read?
Answer: soluble

Question: For “MSFLSNSLNRISFNSFSNMHSLLSSKFQEHYNDIYDWNGNIENIYKANTFISIGYKLLYPLGVLEANFDKEKLKKFLFRICSYYNDIPYHTSLHAAQVAHFSKSMLFMLDMNHKISAIDEFCLHISSLCHDTGHPGLNNYFLINSENNLALTYNDNSVLENYHCSLLFKTLKNPNYNIFEHYPYHIFISCKKNIIKAILSTDMKNHFEYISDFRTSKEFIDYDNLSNDQIWQIFCLILKASDIGHSTLEWNKHLEWTLKINEEFYLQGLLEKSLNIQNSFLCDINTMNKLALSQIDFLKHLCIPLFNELNYICKNNDVYTHCIQPIENNIERWESHKNDNQNLGLHEKYKEENLLSKLELIKFE”, which “soluble on expression in E. coli” value is on record?
Answer: not soluble

Question: For “MDLYAVWGNPIAQSKSPLIQNKLAAQTHQTMEYIAKLGDLDAFEQQLLAFFEEGAKGCNITSPFKERAYQLADEYSQRAKLAEACNTLKKLDDGKLYADNTDGIGLVTDLQRLNWLRPNQHVLILGAGGATKGVLLPLLQAQQNIVLANRTFSKTKELAERFQPYGNIQAVSMDSIPLQTYDLVINATSAGLSGGTASVDAEILKLGSAFYDMQYAKGTDTPFIALCKSLGLTNVSDGFGMLVAQAAHSFHLWRGVMPDFVSVYEQLKKAMLLEHHHHHH”, which “soluble on expression in E. coli” value is on record?
Answer: soluble

Question: With “MAHHHHHHMCHLCDVPVITPDKGVIQSGCGLHPKKTLGNGGAGGVHPGKNTTQETGFPTTGGPNNQHIHLRLCDLVLPRVEYNILPQIFRGVNRDLRHSWSILGGQCGTVKVRRVSLQHAVGATRLHVSVQETAPPFPLHGVTPPLHPLCGAHKLDGQFTDTAGQRTTRPLYTSHTRRIPTAFSLFYSPFFCVPSSNRAPSSSALHVPLTRRWQKGRRRLGTSHARTPRPHSPK” as the sequence, how does the “soluble on expression in E. coli” value read?
Answer: not soluble

Question: With “MSHHHHHHSQGGPQDHVEIIPLGGMGEIGKNITVFRFRDEIFVLDGGLAFPEEGMPGVDLLIPRVDYLIEHRHKIKAWVLTHGHEDHIGGLPFLLPMIFGKESPVPIYGARLTLGLLRGKLEEFGLRPGAFNLKEISPDDRIQVGRYFTLDLFRMTHSIPDNSGVVIRTPIGTIVHTGDFKLDPTPIDGKVSHLAKVAQAGAEGVLLLIADATNAERPGYTPSEMEIAKELDRVIGRAPGRVFVTTFASHIHRIQSVIWAAEKYGRKVAMEGRSMLKFSRIALELGYLKVKDRLYTLEEVKDLPDHQVLILATGSQGQPMSVLHRLAFEGHAKMAIKPGDTVILSSSPIPGNEEAVNRVINRLYALGAYVLYPPTYKVHASGHASQEELKLILNLTTPRFFLPWHGEVRHQMNFKWLAESMSRPPEKTLIGENGAVYRLTRETFEKVGEVPHGVLYVDGLGVGDITEEILADRRHMAEEGLVVITALAGEDPVVEVVSRGFVKAGERLLGEVRRMALEALKNGVREKKPLERIRDDIYYPVKKFLKKATGRDPMILPVVIEG” as the sequence, how does the “soluble on expression in E. coli” value read?
Answer: soluble

Question: For “MSLKDPLSEALVRLNQKVDSELIPEIKRFPLIGISTDISPKRTAVNTAYVQSVILSGGIPYMIPVTDNVEILRQIVSRLDGIVFTGGEDIQPMYYGDLPYEKLEEVSPARDTFDLMVLKMAADRNIPILGICRGLQLMNVAFGGTLYQDLPTQHPSSVNHRQKESGTTTTHPISIIKGSKLADITGQEVLQVNTFHHQAIQKLAPGFKITAWAPDSIAEAIEAYPIRQMIGVQFHPEIFTAAGDTTMHKLFKFLVNKADEGHHHHHH”, which “soluble on expression in E. coli” value is on record?
Answer: not soluble
